The values below come from the supplement of paper PMC10567573.

B1: TFE3 (parent)
chain: ELPNIKREISETEAKALLKERQKK
B2: SMG5 (parent)
chain: TNPDLIIVCAQSSQSLWNRLSVLL
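Further: lentivirally expressed fusions sorted by FACS into six bins by GFP to DsRed ratio, PSI derived from sequencing read proportions per bin multiplied by bin number.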

The variants in the first series derive from B1. As to the kind of experiment: protein stability index of a GFP-peptide fusion (GPS, HEK-293T) (PSI 1-6); higher = more stable. The following applies: c terminus: a fixed tail appended.
In the case of ELPNIKREISETEAKALHKERQKK [L18H], the protein stability index turned out to be 2.56.

Regarding ELPNIKREISETEAKALMKERQKK [L18M], the protein stability index is 2.05. Regarding ELPNIKREISETEAKALLKEEQKK [R21E], the protein stability index was 2.74. Same read-out and setting: in the case of ELPNIKREISETEAKALLKENQKK [R21N] it was 2.91; in that of ELPNIKREISWTEAKALLKERQKK [E11W], 2.91; in that of ELPNIKREISPTEAKALLKERQKK [E11P], 4.21. For the variant ELPNIKREISDTEAKALLKERQKK [E11D], the protein stability index turned out to be 2.45. Same read-out and setting: in the case of ELPNIKREISSTEAKALLKERQKK [E11S] it was 3.61; in that of ELPNIKREISNTEAKALLKERQKK [E11N], 2.99. Same read-out and setting: with ELPNIKREISETEAEALLKERQKK [K15E] the figure was 1.86; with ELPNIKREISETEAMALLKERQKK [K15M], 2.41. Same read-out and setting: with ELPNIKREISETEALALLKERQKK [K15L] the figure was 2.08; with ELPNIKREISETEAKALLKERNKK [Q22N], 2.5. As for ELPNIKREISETEAKALLKERMKK [Q22M], the protein stability index turned out to be 2.75. Still for that read-out and setting: with ELPNIKREISETEAKALLKERFKK [Q22F] the figure was 2.34; with ELPNIKREIGETEAKALLKERQKK [S10G], 3; with ELPNIKREICETEAKALLKERQKK [S10C], 3.2. On the same count and under the same terms, with ELPDIKREISETEAKALLKERQKK [N4D] the figure was 2.75; with EFPNIKREISETEAKALLKERQKK [L2F], 4.29.

On to ERPNIKREISETEAKALLKERQKK [L2R], for which the protein stability index came to 3.94.

Turning to ELYNIKREISETEAKALLKERQKK [P3Y], the protein stability index turned out to be 3.04. With KLPNIKREISETEAKALLKERQKK [E1K], the protein stability index came out at 3.13. YLPNIKREISETEAKALLKERQKK [E1Y]: the protein stability index came to 2.82. The same measure, in the same setting: with ELPNIKREISETEAKALLKVRQKK [E20V] the figure was 2.52; with ELPNIKREISETEAKALLKSRQKK [E20S], 2.67. ELPNIRREISETEAKALLKERQKK [K6R]: the protein stability index came out at 2.02. On the same count and under the same terms, with ELPNIWREISETEAKALLKERQKK [K6W] the figure was 2.01.

As for ELPNIAREISETEAKALLKERQKK [K6A], the protein stability index was found to be 2.95. ELPNIPREISETEAKALLKERQKK [K6P]: the protein stability index stood at 3.89.

Turning to ELPNIKRWISETEAKALLKERQKK [E8W], the protein stability index was determined as 2.21. Still for that read-out and setting: with ELPNIKRRISETEAKALLKERQKK [E8R] the figure was 4.32; with ELPNIKTEISETEAKALLKERQKK [R7T], 3.51.

In the case of ELPNIKEEISETEAKALLKERQKK [R7E], the protein stability index was 2.46. On the same count and under the same terms, with ELPNIKAEISETEAKALLKERQKK [R7A] the figure was 2.55. For the variant ELPNIKREISETEAKALLKERQKI [K24I], the protein stability index is 2.69.

For ELPNIKREISETEAKAILKERQKK [L17I], the protein stability index was determined as 2.98. With ELPNIKREISETEAKAALKERQKK [L17A], the protein stability index amounted to 2.74. As to ELPNIKREISETEAKAHLKERQKK [L17H], the protein stability index came to 2.12. ELPNIKREISETSAKALLKERQKK [E13S]: the protein stability index stood at 4.13. Regarding ELPNIKREISETLAKALLKERQKK [E13L], the protein stability index came to 3.06. Regarding ELPNIKREISETFAKALLKERQKK [E13F], the protein stability index turned out to be 3.26.

ELPNIKREISEVEAKALLKERQKK [T12V]: the protein stability index was determined as 4.04.

In the case of ELPNIKREISEREAKALLKERQKK [T12R], the protein stability index is 4.08.

As for ELPNIKREISELEAKALLKERQKK [T12L], the protein stability index is 4. Same read-out and setting: in the case of ELPNRKREISETEAKALLKERQKK [I5R] it was 4.4; in that of ELPNIKREISETERKALLKERQKK [A14R], 2.51; in that of ELPNIKREISETEGKALLKERQKK [A14G], 3. As for ELPNIKREISETEVKALLKERQKK [A14V], the protein stability index worked out at 2.45. Still for that read-out and setting: with ELPNIKREISETEAKLLLKERQKK [A16L] the figure was 2.34; with ELPNIKREISETEAKELLKERQKK [A16E], 4.09; with ELPNIKREISETEAKTLLKERQKK [A16T], 2.96. On to ELPNIKREWSETEAKALLKERQKK [I9W], for which the protein stability index worked out at 4.13. On the same count and under the same terms, with ELPNIKREISETEAKALLKERQRK [K23R] the figure was 2.78; with ELPNIKREISETEAKALLKERQNK [K23N], 2.85.

The next series covers variants of B2. Described as above. The note with it: c terminus: a fixed tail appended.
Regarding TNPDLIIVCAQSSQSLWNRLSVHL [L23H], the protein stability index worked out at 3.59. The same measure, in the same setting: with TNPDLIIVCAQSSQSLWQRLSVLL [N18Q] the figure was 2.4. As for TNPDLIIVCAQSSQSLWERLSVLL [N18E], the protein stability index amounted to 1.56. The same measure, in the same setting: with TNPDLIIVCAQSSQSLWARLSVLL [N18A] the figure was 3.11; with TNPDLIIVCAQSSQELWNRLSVLL [S15E], 2.58. Regarding TNPDLIIVCALSSQSLWNRLSVLL [Q11L], the protein stability index is 3.05. TNPDLIIVCAWSSQSLWNRLSVLL [Q11W]: the protein stability index is 1.54.

On to TNPDLIIVCAQSSQSLQNRLSVLL [W17Q], for which the protein stability index turned out to be 1.9. On to TNPDLIIVCAQSSQSLWNRYSVLL [L20Y], for which the protein stability index was 2.11. Consider TNPDLIIVCAQSSQSLWNRPSVLL [L20P], for which the protein stability index came out at 2.92. For the variant TNPDLIIVRAQSSQSLWNRLSVLL [C9R], the protein stability index turned out to be 2.12. On the same count and under the same terms, in the case of TNPDLIIVVAQSSQSLWNRLSVLL [C9V] it was 2.69; in that of TNPDLIIVCAQSRQSLWNRLSVLL [S13R], 1.36; in that of TLPDLIIVCAQSSQSLWNRLSVLL [N2L], 2.99.

With TNPDLIIVCAQSSTSLWNRLSVLL [Q14T], the protein stability index was found to be 3.58. Same read-out and setting: with TNPDLIIVCAQSSMSLWNRLSVLL [Q14M] the figure was 2.22; with TNPDLIIVCAQSSYSLWNRLSVLL [Q14Y], 3.2. On the same count and under the same terms, in the case of TNPDLIIVCAQSSQSLWNRLEVLL [S21E] it was 3.57; in that of TNPDLIIVCAQSSQSLWNRLQVLL [S21Q], 2.87.

For the variant TNPDLIIVCAQSSQSLWNRLSRLL [V22R], the protein stability index was 2.23. The same measure, in the same setting: with TNPDLIIVCAQSSQSLWNRLSNLL [V22N] the figure was 1.58; with TNPDLNIVCAQSSQSLWNRLSVLL [I6N], 2.4. The same measure, in the same setting: in the case of TNPDLFIVCAQSSQSLWNRLSVLL [I6F] it was 2.5; in that of TNPDLQIVCAQSSQSLWNRLSVLL [I6Q], 3.05; in that of TNPDLYIVCAQSSQSLWNRLSVLL [I6Y], 2.83.

With TNPDRIIVCAQSSQSLWNRLSVLL [L5R], the protein stability index was 1.39. Take TNPDMIIVCAQSSQSLWNRLSVLL [L5M]: the protein stability index is 2.01. On to TNPDLIIVCAQSSQSRWNRLSVLL [L16R], for which the protein stability index worked out at 2.94. Regarding TNPDLIIVCAQSSQSQWNRLSVLL [L16Q], the protein stability index came to 2.55.

Consider TNPDLITVCAQSSQSLWNRLSVLL [I7T], for which the protein stability index came to 1.66.

With TNPDLIVVCAQSSQSLWNRLSVLL [I7V], the protein stability index is 1.1. The same measure, in the same setting: in the case of TNPDLIPVCAQSSQSLWNRLSVLL [I7P] it was 2.41; in that of TNPDLISVCAQSSQSLWNRLSVLL [I7S], 1.34; in that of TNPDLIIVCAQSSQSLWNILSVLL [R19I], 1.75. The same measure, in the same setting: in the case of TNPDLIIVCAQSSQSLWNCLSVLL [R19C] it was 2.09. In the case of TNPDLIIVCAQSSQSLWNALSVLL [R19A], the protein stability index was 1.74.

For TNPDLIIVCAQSSQSLWNWLSVLL [R19W], the protein stability index turned out to be 2.23. Same read-out and setting: with VNPDLIIVCAQSSQSLWNRLSVLL [T1V] the figure was 2.84; with TNPDLIIVCRQSSQSLWNRLSVLL [A10R], 1.8.

As for TNTDLIIVCAQSSQSLWNRLSVLL [P3T], the protein stability index stood at 2.8.
